Reference: publication PMC2710508, “A Peek into Tropomyosin Binding and Unfolding on the Actin Filament” (PLoS ONE, 2009)

B1: P2P3Shift tropomyosin (Y60A/L64A/L106A/A120L) (natural protein)
chain: MDAIKKKMQMLKLDKENALDRAEQAEADKKAAEDRSKQLEDELVSLQKKLKGTEDELDKASEAAKDAQEKLELAEKKATDAEADVASLNRRIQLVEEELDRAQERAATALQKLEEAEKALDESERGMKVIESRAQKDEEKMEIQEIQLKEAKHIAEDADRKYEEVARKLVIIESDLERAEERAELSEGKCAELEEELKTVTNNLKSLEAQAEKYSQKEDKYEEEIKVLSDKLKEAETRAEFAERSVTKLEKSIDDLEDELYAQKLKYKAISEELDHALNDMTSI
notes: striated muscle alpha-tropomyosin, rat, cDNA in pET11d, expressed with an unacetylated N-terminal Met; combines the P2Shift and P3Shift mutations; TnT 70-170 present in every actin experiment; source: E. coli BL21 (DE3), purified (ammonium sulfate fractionation, DE52 cellulose, hydroxylapatite)
B2: tropomyosin P2Shift C190S/L71C, unlabeled (natural protein)
chain: not shown
notes: striated muscle alpha-tropomyosin, rat, cDNA in pET11d, expressed with an unacetylated N-terminal Met; Unlabeled form used for light scattering; source: E. coli BL21 (DE3), purified (ammonium sulfate fractionation, DE52 cellulose, hydroxylapatite)
B3: tropomyosin P3Shift C190S/L113C, unlabeled (natural protein)
chain: not shown
notes: as for B2

Columns and labels:
Conditions in all cases: both partners purified
[1] = molecular target: T1, F-actin from chicken pectoral skeletal muscle (chicken, UniProt P68139 1-377); experiment: co-sedimentation; tropomyosin 0.1–10 µM with 0.12–12 µM troponin T 70–170 (1.2× molar excess) and 5 µM F-actin, 20°C, 250 mM NaCl, 10 mM TrisHCl pH 7.5, 2 mM MgCl2, 0.5 mM DTT; pellets and supernatants by SDS-PAGE and densitometry; apparent constant (Kapp) and Hill coefficient from a fit to the Hill equation
[2] = molecular target: T1, F-actin from chicken pectoral skeletal …; experiment: differential scanning calorimetry; tropomyosin 15 µM and TnT 70–170 18 µM with phalloidin (36 µM) stabilized F-actin (24 µM), 100 mM NaCl, 10 mM Hepes pH 7.0, 2 mM MgCl2, 1 mM DTT; three heating scans at 1°C/min; peak of unfolding/dissociation of actin-bound tropomyosin
[3] = molecular target: T1, F-actin from chicken pectoral skeletal …; experiment: light scattering temperature scan; unlabeled tropomyosin 6 µM, TnT 70–170, phalloidin (27 µM) stabilized F-actin (18 µM), 100 mM NaCl, 10 mM sodium phosphate pH 7.5, 2 mM MgCl2, 1 mM DTT; 90° scattering at 245 nm, 20–65°C at 1°C/min; temperature of 50% decrease in scattering

| Binder | Ka [1] [M⁻¹] | DSC TM of dissociation from F-actin (TM3) [2] [°C] | DSC ΔΔH (with minus without F-actin) [2] [kcal/mol] | light scattering TM (half maximal dissociation from F-actin) [3] [°C] |
| --- | --- | --- | --- | --- |
| B1 | 1.83e+06 | 44.4 | 14.4 | – |
| B2 | – | – | – | 40.7 |
| B3 | – | – | – | 41.9 |
